The series deals with Hfq (His-tagged) (Burkholderia cenocepacia J2315?). In words: EMSA. Particulars: RNA binding buffer (composition in cited ref. 21), 25 ul, 30 min at 25 C, salt and pH not stated. On the technique in general: In EMSA bound probe runs differently from free probe, usually more slowly.

pKd: −log10 of the molar value.

The pKd is the negative decadic logarithm of the Kd, by convention in mol/L. On to h2cR sRNA (136 nt), for which the pKd (apparent Kd, 2.5 nM RNA, 0-10 nM Hfq6, excess yeast tRNA, excess unlabelled yeast …) was 8.82.

In the case of hfq2 5'-UTR (216 nt), the negative logarithm of the Kd (pKd) (excess unlabelled yeast tRNA) was 8.02.
